# In patent publication US20130209464A1:
# Biological target: HIV-1 MN strain envelope (Env) on Env-pseudotyped virus (HIV-1 MN strain) (UniProt P05877)
# Assay: cell-based or functional assay
# Sequence of HIV-1 MN strain envelope (Env) on Env-pseudotyped virus (HIV-1 MN strain) (P05877 32-856 limits assumed): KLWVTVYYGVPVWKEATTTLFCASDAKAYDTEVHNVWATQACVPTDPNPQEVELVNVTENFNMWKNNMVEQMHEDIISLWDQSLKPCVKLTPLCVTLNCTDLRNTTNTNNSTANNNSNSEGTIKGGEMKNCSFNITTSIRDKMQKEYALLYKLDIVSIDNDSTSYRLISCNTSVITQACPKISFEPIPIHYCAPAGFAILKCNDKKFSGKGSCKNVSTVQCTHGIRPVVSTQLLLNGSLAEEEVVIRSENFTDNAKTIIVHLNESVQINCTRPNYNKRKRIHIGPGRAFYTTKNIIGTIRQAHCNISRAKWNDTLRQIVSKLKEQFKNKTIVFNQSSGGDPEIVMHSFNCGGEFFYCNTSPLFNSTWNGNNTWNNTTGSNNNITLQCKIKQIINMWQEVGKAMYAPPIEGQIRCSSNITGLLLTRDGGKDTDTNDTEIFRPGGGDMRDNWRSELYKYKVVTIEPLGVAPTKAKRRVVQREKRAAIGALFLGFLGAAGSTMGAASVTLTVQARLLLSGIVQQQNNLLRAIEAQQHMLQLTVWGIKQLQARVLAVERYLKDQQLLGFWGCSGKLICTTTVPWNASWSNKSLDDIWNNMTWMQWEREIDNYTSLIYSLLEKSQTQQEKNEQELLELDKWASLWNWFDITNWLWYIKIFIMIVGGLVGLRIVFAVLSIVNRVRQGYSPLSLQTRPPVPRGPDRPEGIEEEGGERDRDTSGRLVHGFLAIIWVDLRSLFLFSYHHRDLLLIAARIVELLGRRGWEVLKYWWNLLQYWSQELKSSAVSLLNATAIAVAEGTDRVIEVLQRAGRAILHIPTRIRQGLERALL
substance,measurement,value
native actinohivin (AH) polypeptide (from UniProt Q9KWN0 47-160),"50% inhibitory concentration (IC50), neutralization of Env-pseudotyped virus, TZM-bl luciferase reporter assay",0.5 mg/L
